The record followed here is the supplement of paper PMC7877785.

± gives the uncertainty stated by the source.

This series in a line: self-splicing fitness, log relative to wild type (ln ratio); higher = more splicing; Tetrahymena group I intron in knt gene, E. coli kanamycin selection, DiMSum; sequences stand for … in CUCUCU…GGAGGGAAAAGUUAUCAGGCAUGCACCUGGUAGCUAGUCUUUAAACCAAUAGAUUGCAUCGGUUUAAAAGGCAAGACCGUCAAAUUGCGGGAAAGGGGUCAACAGCCGUUCAGUACCAAGUCUCAGGGGAAACUUUGAGAUGGCCUUGCAAAGGGUAUGGUAAUAAGCUGACGGACAUGGUCCUAACCACGCAGCCAAGUCCUAAGUCAACAGAUCUUCUGUUGAUAUGGAUGCAGUUCACAGACUAAAUGUCGGUCGGGGAAGAUGUAUUCUUCUCAUAAGAUAUAGUCGGACCUCUCCUUAAUGGGAGCUAGCGGAUGAAGUGAUGCAACACUGGAGCCGCUGGGAACUAAUUUGUAUGCGAAAGUAUAUUGAUUAGUUUUGGAGUACUCGUGGUCG
In a few lines:
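Colonies from six replicate transformations of E. coli BL21(DE3) were pooled and amplicon-sequenced on an Illumina HiSeq 2500. The library placed an intron with all eight P1ex-region nucleotides randomised inside the knt kanamycin-resistance gene on pET-22b(+), and cells grew overnight at 37°C or 30°C on LB agar with or without 25 μg/mL kanamycin (plus 100 μg/mL carbenicillin, 50 μM IPTG, 0.2% rhamnose). Fitness is the DiMSum error-weighted combination of wild-type-normalised replicate fold changes, kanamycin versus none.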

Turning to CUCAAGCAAUAUUACGGGAC, the “self-splicing fitness (ln)” value is, setting by setting: (30 °C) -3.7 ± 0.33; (37 °C) -2.14 ± 0.3. For CUCAAGCAAUAUUACGGGAU, the “self-splicing fitness (ln)” value reads like this: (30 °C) -3.47 ± 0.12; (37 °C) -1.34 ± 0.099.

For the sequence CUCAAGCAAUAUUACGGUAC, the “self-splicing fitness (ln)” value (37 °C) is -3.06 ± 0.37. For CUCAAGCAAUAUUACGUAAG, the “self-splicing fitness (ln)” value (30 °C) was -0.417 ± 0.054 and the “self-splicing fitness (ln)” value (37 °C) is -0.102 ± 0.086. Take CUCAAGCAAUAUUACGUCAA: the “self-splicing fitness (ln)” value is -4.09 ± 0.35 (30 °C) and -2.31 ± 0.19 (37 °C). The corresponding values for CUCAAGCAAUAUUACGUCAC are -3.4 ± 0.22 and -2.7 ± 0.21. Take CUCAAGCAAUAUUACGUGCA: the “self-splicing fitness (ln)” value is -3.43 ± 0.26 (30 °C) and -1.85 ± 0.19 (37 °C). The corresponding values for CUCCAGCAAUAUUACGACAG are -1.4 ± 0.14 and -0.3 ± 0.14. The corresponding values for CUCCAGCAAUAUUACGAGUA are -2.58 ± 0.16 and -2.14 ± 0.14. Turning to CUCCAGCAAUAUUACGAUAC, the “self-splicing fitness (ln)” value runs as follows: (30 °C) -3.57 ± 0.31; (37 °C) -1.94 ± 0.32. Taken in the same sequence, the figures for CUCCAGCAAUAUUACGCACG were -1.52 ± 0.13 and -1.12 ± 0.18. Taken in the same sequence, the figures for CUCCAGCAAUAUUACGCAGU were -3.59 ± 0.21 and -2.04 ± 0.23. Turning to CUCCAGCAAUAUUACGCCAA, the “self-splicing fitness (ln)” value (37 °C) is -2.07 ± 0.27. With CUCCAGCAAUAUUACGCGGC, the “self-splicing fitness (ln)” value was -1.8 ± 0.26 (30 °C) and -2.08 ± 0.39 (37 °C).

For CUCCAGCAAUAUUACGCUAA, the “self-splicing fitness (ln)” value (30 °C) was -3.28 ± 0.27 and the “self-splicing fitness (ln)” value (37 °C) is -2.62 ± 0.42.

As for CUCCAGCAAUAUUACGCUUA, the “self-splicing fitness (ln)” value reads like this: (30 °C) -4.14 ± 0.34; (37 °C) -2.49 ± 0.24.

As for CUCCAGCAAUAUUACGGAAG, the “self-splicing fitness (ln)” value (30 °C) was -3.34 ± 0.16 and the “self-splicing fitness (ln)” value (37 °C) was -3.14 ± 0.24. As to CUCCAGCAAUAUUACGGACG, the “self-splicing fitness (ln)” value was -0.729 ± 0.059 (30 °C) and -0.666 ± 0.09 (37 °C). As for CUCCAGCAAUAUUACGGCUC, the “self-splicing fitness (ln)” value is -2.78 ± 0.23 (30 °C) and -1.57 ± 0.17 (37 °C). With CUCCAGCAAUAUUACGGUAU, the “self-splicing fitness (ln)” value (30 °C) is -4.21 ± 0.22 and the “self-splicing fitness (ln)” value (37 °C) was -3.58 ± 0.19. The corresponding values for CUCCAGCAAUAUUACGGUGA are -2 ± 0.099 and -1.39 ± 0.11.

For the sequence CUCCAGCAAUAUUACGUCCA, the “self-splicing fitness (ln)” value runs as follows: (30 °C) -3.35 ± 0.39; (37 °C) -3.24 ± 0.33. Taken in the same sequence, the figures for CUCCAGCAAUAUUACGUCGU were -3.07 ± 0.12 and -2.72 ± 0.18.

Consider CUCCAGCAAUAUUACGUGCA, for which the “self-splicing fitness (ln)” value is, setting by setting: (30 °C) -3.43 ± 0.17; (37 °C) -2.32 ± 0.13.

As for CUCCAGCAAUAUUACGUGGG, the “self-splicing fitness (ln)” value reads like this: (30 °C) -3.29 ± 0.11; (37 °C) -2.62 ± 0.14. The corresponding values for CUCCAGCAAUAUUACGUUAG are -2.15 ± 0.094 and -1.51 ± 0.12. Taken in the same sequence, the figures for CUCCAGCAAUAUUACGUUCU were -2.89 ± 0.15 and -3.65 ± 0.46.

In the case of CUCCAGCAAUAUUACGUUUU, the “self-splicing fitness (ln)” value (30 °C) is -3.38 ± 0.12 and the “self-splicing fitness (ln)” value (37 °C) is -3.12 ± 0.15. Taken in the same sequence, the figures for CUCGAGCAAUAUUACGAUAA were -2.16 ± 0.36 and -2.02 ± 0.37. In the case of CUCGAGCAAUAUUACGCACU, the “self-splicing fitness (ln)” value (30 °C) was -2.96 ± 0.3. CUCGAGCAAUAUUACGGACG: the “self-splicing fitness (ln)” value (30 °C) is -2.4 ± 0.15 and the “self-splicing fitness (ln)” value (37 °C) was -2.25 ± 0.23. The corresponding values for CUCGAGCAAUAUUACGGCGU are -1.96 ± 0.12 and -1.61 ± 0.18. Regarding CUCGAGCAAUAUUACGGCUA, the “self-splicing fitness (ln)” value (37 °C) is -2.32 ± 0.39. Consider CUCGAGCAAUAUUACGGGUC, for which the “self-splicing fitness (ln)” value (30 °C) is -3.33 ± 0.28 and the “self-splicing fitness (ln)” value (37 °C) was -1.77 ± 0.31.

Regarding CUCGAGCAAUAUUACGGUAC, the “self-splicing fitness (ln)” value (30 °C) is -2.82 ± 0.22 and the “self-splicing fitness (ln)” value (37 °C) was -2.84 ± 0.4.

As to CUCGAGCAAUAUUACGGUCA, the “self-splicing fitness (ln)” value is -2.89 ± 0.28 (30 °C) and -0.817 ± 0.23 (37 °C). Regarding CUCGAGCAAUAUUACGUAAC, under “30 °C”, the “self-splicing fitness (ln)” value is -1.53 ± 0.28. Consider CUCGAGCAAUAUUACGUAAU, for which the “self-splicing fitness (ln)” value (37 °C) was -1.42 ± 0.29. As for CUCGAGCAAUAUUACGUCAA, the “self-splicing fitness (ln)” value is -3.49 ± 0.3 (30 °C) and -1.81 ± 0.26 (37 °C). CUCGAGCAAUAUUACGUGCC: the “self-splicing fitness (ln)” value (30 °C) was -3.35 ± 0.35. For CUCGAGCAAUAUUACGUGGA, the “self-splicing fitness (ln)” value was -2.89 ± 0.27 (30 °C) and -1.88 ± 0.16 (37 °C). As for CUCGAGCAAUAUUACGUUCA, the “self-splicing fitness (ln)” value (30 °C) was -3.47 ± 0.35. As to CUCGAGCAAUAUUACGUUCG, under “37 °C”, the “self-splicing fitness (ln)” value was -3.15 ± 0.47. Still for that read-out and setting: to CUCUAGCAAUAUUACGAAAA belongs -1.12 ± 0.2.

Turning to CUCUAGCAAUAUUACGAACG, the “self-splicing fitness (ln)” value runs as follows: (30 °C) -0.887 ± 0.097; (37 °C) -0.112 ± 0.11. Regarding CUCUAGCAAUAUUACGAAGA, the “self-splicing fitness (ln)” value (37 °C) is -2.75 ± 0.26. Turning to CUCUAGCAAUAUUACGAAUG, the “self-splicing fitness (ln)” value is -1.55 ± 0.091 (30 °C) and -1.1 ± 0.11 (37 °C). Taken in the same sequence, the figures for CUCUAGCAAUAUUACGACGG were -2.32 ± 0.18 and -1.98 ± 0.29. For CUCUAGCAAUAUUACGAGAC, the “self-splicing fitness (ln)” value (37 °C) is -1.17 ± 0.26. As to CUCUAGCAAUAUUACGAGCG, the “self-splicing fitness (ln)” value was -2.79 ± 0.14 (30 °C) and -2.73 ± 0.16 (37 °C). In the case of CUCUAGCAAUAUUACGAGUC, for the setting “37 °C”, the “self-splicing fitness (ln)” value was -2.8 ± 0.3. For CUCUAGCAAUAUUACGAUAA, the “self-splicing fitness (ln)” value is -3.29 ± 0.27 (30 °C) and -2 ± 0.24 (37 °C). For CUCUAGCAAUAUUACGCACA, the “self-splicing fitness (ln)” value by setting is: (30 °C) -3.24 ± 0.4; (37 °C) -3.82 ± 0.46.

On to CUCUAGCAAUAUUACGCUGA, for which the “self-splicing fitness (ln)” value is, setting by setting: (30 °C) -1.6 ± 0.21; (37 °C) -2.31 ± 0.27. Take CUCUAGCAAUAUUACGCUGC: the “self-splicing fitness (ln)” value (30 °C) is -3.58 ± 0.44. Turning to CUCUAGCAAUAUUACGGAAG, the “self-splicing fitness (ln)” value runs as follows: (30 °C) -2.95 ± 0.13; (37 °C) -1.34 ± 0.12. As to CUCUAGCAAUAUUACGGCGU, the “self-splicing fitness (ln)” value runs as follows: (30 °C) -3.56 ± 0.27; (37 °C) -2.83 ± 0.24.

For CUCUAGCAAUAUUACGGUAU, the “self-splicing fitness (ln)” value (30 °C) was -2.7 ± 0.16 and the “self-splicing fitness (ln)” value (37 °C) is -2.77 ± 0.23.

With CUCUAGCAAUAUUACGGUCU, the “self-splicing fitness (ln)” value (30 °C) is -3.26 ± 0.2 and the “self-splicing fitness (ln)” value (37 °C) is -3.06 ± 0.23. For CUCUAGCAAUAUUACGGUUU, the “self-splicing fitness (ln)” value is, setting by setting: (30 °C) -3.04 ± 0.41; (37 °C) -1.82 ± 0.29.

Regarding CUCUAGCAAUAUUACGUCGC, the “self-splicing fitness (ln)” value (37 °C) is -3.28 ± 0.47.

For the sequence CUCUAGCAAUAUUACGUGCC, the “self-splicing fitness (ln)” value (30 °C) was -3.23 ± 0.28 and the “self-splicing fitness (ln)” value (37 °C) is -3.62 ± 0.39. The corresponding values for CUCUAGCAAUAUUACGUGCU are -2.48 ± 0.3 and -2.38 ± 0.27. The corresponding values for CUCUAGCAAUAUUACGUGGU are -5.48 ± 0.41 and -3.5 ± 0.22.

In the case of CUCUAGCAAUAUUACGUUCA, the “self-splicing fitness (ln)” value was -3.66 ± 0.34 (30 °C) and -3.02 ± 0.27 (37 °C). As to CUGAAGCAAUAUUACGAAAC, where the note is “30 °C”, the “self-splicing fitness (ln)” value is -3.39 ± 0.25. On the same count and under the same terms, to CUGAAGCAAUAUUACGACUC belongs -1.82 ± 0.22. Regarding CUGAAGCAAUAUUACGACUG, the “self-splicing fitness (ln)” value (30 °C) amounted to 0.187 ± 0.08 and the “self-splicing fitness (ln)” value (37 °C) worked out at 0.678 ± 0.11. The corresponding values for CUGAAGCAAUAUUACGAGAG are -1.32 ± 0.088 and -1.18 ± 0.11.

As for CUGAAGCAAUAUUACGAGGG, the “self-splicing fitness (ln)” value is -2.03 ± 0.11 (30 °C) and -1.25 ± 0.14 (37 °C). Taken in the same sequence, the figures for CUGAAGCAAUAUUACGAUGA were -3.52 ± 0.21 and -1.92 ± 0.16.

With CUGAAGCAAUAUUACGAUGU, the “self-splicing fitness (ln)” value runs as follows: (30 °C) -3.12 ± 0.13; (37 °C) -1.21 ± 0.12. For the sequence CUGAAGCAAUAUUACGCAGG, the “self-splicing fitness (ln)” value is, setting by setting: (30 °C) -1.8 ± 0.082; (37 °C) -1.77 ± 0.12. The corresponding values for CUGAAGCAAUAUUACGCGAC are -1.46 ± 0.086 and -1.14 ± 0.1. Taken in the same sequence, the figures for CUGAAGCAAUAUUACGCGGC were -0.11 ± 0.081 and 0.053 ± 0.11. For CUGAAGCAAUAUUACGCUAC, the “self-splicing fitness (ln)” value (30 °C) is -3.7 ± 0.47. On to CUGAAGCAAUAUUACGGAUG, for which the “self-splicing fitness (ln)” value was -2.18 ± 0.1 (30 °C) and -1.14 ± 0.1 (37 °C). As for CUGAAGCAAUAUUACGGCCC, the “self-splicing fitness (ln)” value (30 °C) was -1.58 ± 0.48. Take CUGAAGCAAUAUUACGGGAU: the “self-splicing fitness (ln)” value reads like this: (30 °C) -1.65 ± 0.076; (37 °C) -1.07 ± 0.11. With CUGAAGCAAUAUUACGGGGC, the “self-splicing fitness (ln)” value runs as follows: (30 °C) -3.24 ± 0.21; (37 °C) -2.56 ± 0.27.

As for CUGAAGCAAUAUUACGUAGU, the “self-splicing fitness (ln)” value runs as follows: (30 °C) -4.3 ± 0.23; (37 °C) -3.22 ± 0.26.
